Experimental data from US20020177203A1, “Alpha2 subunit of prolyl 4-hydroxylase” (priority 1996, published 2002).

Assays:
[1] = molecular target: mouse/human type 2 prolyl 4-hydroxylase tetramer (mouse; human) (UniProt P07237); experiment: cell-based or functional assay
[2] = molecular target: human type 1 prolyl 4-hydroxylase tetramer (human) (UniProt P13674); experiment: inhibition of prolyl 4-hydroxylase activity (2-oxo[1-14C]glutarate decarboxylation), insect cell extract
human type 1 prolyl 4-hydroxylase tetramer (human), sequence (P13674 18-534, chain 1 of 2): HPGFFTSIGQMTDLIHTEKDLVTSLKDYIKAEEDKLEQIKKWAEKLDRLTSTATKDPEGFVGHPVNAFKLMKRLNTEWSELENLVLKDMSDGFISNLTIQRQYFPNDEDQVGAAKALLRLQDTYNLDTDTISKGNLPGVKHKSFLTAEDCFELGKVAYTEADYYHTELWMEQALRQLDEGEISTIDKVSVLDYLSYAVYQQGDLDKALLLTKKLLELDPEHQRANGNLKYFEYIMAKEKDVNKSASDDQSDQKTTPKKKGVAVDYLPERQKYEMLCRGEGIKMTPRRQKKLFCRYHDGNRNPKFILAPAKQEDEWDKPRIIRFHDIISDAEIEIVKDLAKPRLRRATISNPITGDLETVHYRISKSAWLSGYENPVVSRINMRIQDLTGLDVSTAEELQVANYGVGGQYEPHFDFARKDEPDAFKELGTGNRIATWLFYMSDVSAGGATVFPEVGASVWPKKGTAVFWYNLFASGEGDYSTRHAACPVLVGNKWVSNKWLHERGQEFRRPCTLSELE
human type 1 prolyl 4-hydroxylase tetramer (human), sequence (P07237 18-508, chain 2 of 2, further chain): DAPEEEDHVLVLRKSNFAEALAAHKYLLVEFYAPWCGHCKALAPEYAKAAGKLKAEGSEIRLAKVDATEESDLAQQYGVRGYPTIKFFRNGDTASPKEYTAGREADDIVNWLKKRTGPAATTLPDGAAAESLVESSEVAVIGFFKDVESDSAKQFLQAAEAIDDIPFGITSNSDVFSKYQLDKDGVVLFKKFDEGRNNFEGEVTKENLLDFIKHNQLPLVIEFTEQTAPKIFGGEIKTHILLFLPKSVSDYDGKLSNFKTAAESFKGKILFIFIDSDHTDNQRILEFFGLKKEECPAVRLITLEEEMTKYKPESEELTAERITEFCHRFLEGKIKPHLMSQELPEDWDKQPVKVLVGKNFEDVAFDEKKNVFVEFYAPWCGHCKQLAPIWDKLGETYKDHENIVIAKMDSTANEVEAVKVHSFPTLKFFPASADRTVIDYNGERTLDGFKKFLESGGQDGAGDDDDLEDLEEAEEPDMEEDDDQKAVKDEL

mouse/human type 2 prolyl 4-hydroxylase tetramer (mouse; human), sequence (chain, as listed by the source, chain 1 of 2): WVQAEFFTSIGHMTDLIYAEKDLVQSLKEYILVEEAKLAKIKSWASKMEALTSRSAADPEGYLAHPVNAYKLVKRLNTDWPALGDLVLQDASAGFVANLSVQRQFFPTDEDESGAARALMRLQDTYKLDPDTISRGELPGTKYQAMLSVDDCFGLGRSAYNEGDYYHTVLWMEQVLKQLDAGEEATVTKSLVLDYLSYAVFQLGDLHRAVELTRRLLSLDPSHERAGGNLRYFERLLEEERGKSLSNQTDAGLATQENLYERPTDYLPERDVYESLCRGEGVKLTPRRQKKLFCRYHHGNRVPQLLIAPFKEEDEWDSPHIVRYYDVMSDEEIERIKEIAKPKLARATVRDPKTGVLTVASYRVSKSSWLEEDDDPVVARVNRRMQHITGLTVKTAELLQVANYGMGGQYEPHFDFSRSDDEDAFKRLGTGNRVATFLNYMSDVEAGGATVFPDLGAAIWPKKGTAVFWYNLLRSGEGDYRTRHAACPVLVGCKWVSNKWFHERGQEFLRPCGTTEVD
mouse/human type 2 prolyl 4-hydroxylase tetramer (mouse; human), sequence (P07237 18-508, chain 2 of 2): as the sequence (P07237 18-508, chain 2 of 2, further chain) above

Row | IC50 (inhibition of prolyl 4-hydroxylase activity; printed in the Ki row) [1] [µM] | Ki [2] [µM] | Substance
1 | 300 | 0.5 | Poly(L-proline), Mr 7000 (peptide)
2 | 30 | 0.02 | Poly(L-proline), Mr 44,000 (peptide)
